Measurements reported in publication PMC4090420.

Columns and labels:
b12 3–5 αIM F25A (human) = assay: ELISA
b12 3–5 αIM H24A (human) = assay: ELISA
b12 3–5 αIM L84A (human) = assay: ELISA
[1] = molecular target: b12 3–5 αIM (Homo sapiens scaffold (engineered FNfn10)) (UniProt P02751); assay: SPR
Chain of b12 3–5 αIM (Homo sapiens scaffold (engineered FNfn10)) (P02751 whole entry, looked up, change not shown): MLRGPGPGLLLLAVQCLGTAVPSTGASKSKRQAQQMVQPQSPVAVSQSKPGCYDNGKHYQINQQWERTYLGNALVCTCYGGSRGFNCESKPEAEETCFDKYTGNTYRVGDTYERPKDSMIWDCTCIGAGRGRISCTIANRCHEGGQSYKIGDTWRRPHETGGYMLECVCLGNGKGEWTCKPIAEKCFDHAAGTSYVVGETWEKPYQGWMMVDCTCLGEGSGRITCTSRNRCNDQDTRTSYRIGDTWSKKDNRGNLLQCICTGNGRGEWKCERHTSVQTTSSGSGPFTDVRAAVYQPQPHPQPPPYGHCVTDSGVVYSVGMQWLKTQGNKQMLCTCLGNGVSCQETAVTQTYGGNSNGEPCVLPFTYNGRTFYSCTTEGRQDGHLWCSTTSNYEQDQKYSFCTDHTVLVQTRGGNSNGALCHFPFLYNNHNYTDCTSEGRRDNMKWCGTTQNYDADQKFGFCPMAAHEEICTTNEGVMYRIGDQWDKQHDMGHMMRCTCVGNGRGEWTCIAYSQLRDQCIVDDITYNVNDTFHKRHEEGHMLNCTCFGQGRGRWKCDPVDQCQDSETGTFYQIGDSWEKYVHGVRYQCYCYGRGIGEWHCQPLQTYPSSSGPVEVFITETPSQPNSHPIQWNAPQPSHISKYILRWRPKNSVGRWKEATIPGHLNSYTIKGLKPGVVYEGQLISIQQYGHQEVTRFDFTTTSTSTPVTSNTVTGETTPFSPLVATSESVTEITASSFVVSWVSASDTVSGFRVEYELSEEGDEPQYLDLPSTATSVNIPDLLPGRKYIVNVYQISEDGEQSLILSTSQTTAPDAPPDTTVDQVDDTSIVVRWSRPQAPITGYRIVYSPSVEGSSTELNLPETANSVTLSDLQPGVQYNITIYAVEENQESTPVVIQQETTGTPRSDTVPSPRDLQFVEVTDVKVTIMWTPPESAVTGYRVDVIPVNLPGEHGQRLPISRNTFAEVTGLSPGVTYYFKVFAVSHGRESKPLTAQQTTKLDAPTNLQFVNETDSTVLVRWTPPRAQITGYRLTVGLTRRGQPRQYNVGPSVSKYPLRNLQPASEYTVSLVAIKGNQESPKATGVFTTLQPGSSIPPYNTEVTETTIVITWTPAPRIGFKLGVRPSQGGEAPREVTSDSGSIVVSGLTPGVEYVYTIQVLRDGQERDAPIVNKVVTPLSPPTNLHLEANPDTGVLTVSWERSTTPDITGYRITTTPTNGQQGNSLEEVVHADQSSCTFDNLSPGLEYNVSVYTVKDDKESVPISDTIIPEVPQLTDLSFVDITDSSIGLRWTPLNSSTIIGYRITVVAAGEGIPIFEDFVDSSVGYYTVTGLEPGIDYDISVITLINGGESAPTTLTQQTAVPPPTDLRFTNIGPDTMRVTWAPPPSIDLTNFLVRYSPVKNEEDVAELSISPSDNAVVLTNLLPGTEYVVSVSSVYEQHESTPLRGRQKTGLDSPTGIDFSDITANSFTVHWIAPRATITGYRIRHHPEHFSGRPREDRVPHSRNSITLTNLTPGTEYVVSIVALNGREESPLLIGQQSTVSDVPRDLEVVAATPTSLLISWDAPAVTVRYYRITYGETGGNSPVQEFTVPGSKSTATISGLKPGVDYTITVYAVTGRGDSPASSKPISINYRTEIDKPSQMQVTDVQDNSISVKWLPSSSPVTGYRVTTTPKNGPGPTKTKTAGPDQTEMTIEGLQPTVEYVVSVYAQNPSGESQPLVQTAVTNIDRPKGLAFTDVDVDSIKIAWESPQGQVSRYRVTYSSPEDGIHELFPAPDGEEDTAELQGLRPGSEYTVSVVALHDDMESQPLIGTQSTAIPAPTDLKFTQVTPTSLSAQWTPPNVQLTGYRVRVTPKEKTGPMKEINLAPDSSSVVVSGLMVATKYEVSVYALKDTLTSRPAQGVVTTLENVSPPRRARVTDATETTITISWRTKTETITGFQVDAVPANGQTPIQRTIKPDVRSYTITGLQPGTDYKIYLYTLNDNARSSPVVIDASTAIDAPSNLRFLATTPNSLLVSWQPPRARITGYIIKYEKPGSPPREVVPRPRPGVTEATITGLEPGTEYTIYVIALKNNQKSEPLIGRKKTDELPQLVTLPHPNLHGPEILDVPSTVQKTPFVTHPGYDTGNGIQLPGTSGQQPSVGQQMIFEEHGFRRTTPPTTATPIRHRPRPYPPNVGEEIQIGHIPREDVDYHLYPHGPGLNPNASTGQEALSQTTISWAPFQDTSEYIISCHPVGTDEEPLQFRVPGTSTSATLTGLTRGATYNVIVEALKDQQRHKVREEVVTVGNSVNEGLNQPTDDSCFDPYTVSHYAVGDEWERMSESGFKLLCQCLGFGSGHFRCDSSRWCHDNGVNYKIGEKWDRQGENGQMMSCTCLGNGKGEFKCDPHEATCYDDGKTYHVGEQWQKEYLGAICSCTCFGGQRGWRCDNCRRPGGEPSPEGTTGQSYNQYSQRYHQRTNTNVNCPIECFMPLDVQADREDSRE

Substance: b12 MAb (antibody)
- fold decrease of binding against wild type b12 3–5 αIM (b12 3–5 αIM F25A (human)): > 10 fold
- fold decrease of binding against wild type b12 3–5 αIM (b12 3–5 αIM H24A (human)): > 10 fold
- fold decrease of binding against wild type b12 3–5 αIM (b12 3–5 αIM L84A (human)): 5 fold

Substance: b12 Fab
- Kd [1]: 43 nM
- koff [1]: 0.0068 s⁻¹
